Experimental data as given in the supplement of paper PMC11908140.

B1: library; numbered along this chain (parent)
chain: MRKPRAAVGSGHRKQAASQEGRQKHAKNNSQAKPSACDGLARQPEEVVLQASVSSYHLFRDVAEVTAFRGSLLSWYDQEKRDLPWRRRAEDEMDLDRRAYAVWVSEVMLQQTQVATVINYYTGWMQKWPTLQDLASASLEEVNQLWAGLGYYSRGRRLQEGARKVVEELGGHMPRTAETLQQLLPGVGRYTAGAIASIAFGQATGVVDGNVARVLCRVRAIGADPSSTLVSQQLWGLAQQLVDPARPGDFNQAAMELGATVCTPQRPLCSQCPVESLCRARQRVEQEQLLASGSLSGSPDVEECAPNTGQCHLCLPPSEPWDQTLGVVNFPRKASRKPPREESSATCVLEQPGALGAQILLVQRPNSGLLAGLWEFPSVTWEPSEQLQRKALLQELQRWAGPLPATHLRHLGEVVHTFSHIKLTYQVYGLALEGQTPVTTVPPGARWLTQEEFHTAAVSTAMKKVFRVYQGQQPGTCMGSKRSQVSSPCSRKKPRMGQQVLDNFFRSHISTDAHSLNSAAQ

Variants of: B1
Test: 8OG:A repair function score (normalized; synonymous = 0, nonsense = -1) (normalized log-likelihood score); higher = more repair activity (WT-like)
Conditions: with 8OG:A DNA repair reporter (GFP) in HEK-293 MUTYH KO cells
Outline: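 GFP+ (repair) and GFP− bins of viable mCherry+ cells were collected at 72 h from MUTYH knockout HEK-293 cells bearing lentiviral MUTYH cDNA NNN codon-scan libraries in 10 pg/ml doxycycline, co-transfected with an 8OG:A GFP repair reporter and mCherry. Tile amplicons were sequenced, and per-tile Rosace fitness scores were normalized to a repair function score anchored on synonymous and nonsense distributions. Synonymous medians were set to 0 and nonsense to -1, with variants under 300 counts per million at the start removed.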
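Also: cells sorted at 72 h after reporter transfection.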

Which “8OG:A repair function score” value does the source give for MRKPRAAVGSGHRKQAASQEGRQKHAKNNSQAKPSACDGLARQPEEVVLQASVSSYHLFRDVAEVTAFRGSLLSWYDQEKRDLPWRRRAEDEMDLDRRAYAVWVSEVMLQQTQVATVINYYTGWMQKWPTLQDLASASLEEVNQLWAGLGYYSRGRRLQEGARKVVEELGGHMPRTAETLQQLLPGVGRYTAGAIASIAFGQATGVVDGNVARVLCRVRAIGADPSSTLVSQQLWGLAQQLVDPARPGDFNQAAMELGATVCTPQRPLCSQCPVESLCRARQRVEQEQLLASGSLSGSPDVEECAPNTGQCHLCLPPSEPWDQTLGVVNFPRKACRKPPREESSATCVLEQPGALGAQILLVQRPNSGLLAGLWEFPSVTWEPSEQLQRKALLQELQRWAGPLPATHLRHLGEVVHTFSHIKLTYQVYGLALEGQTPVTTVPPGARWLTQEEFHTAAVSTAMKKVFRVYQGQQPGTCMGSKRSQVSSPCSRKKPRMGQQVLDNFFRSHISTDAHSLNSAAQ [S335C] here?
The value was -0.0251.

Which “8OG:A repair function score” value does the source give for MRKPRAAVGSGHRKQAASQEGRQKHAKNNSQAKPSACDGLARQPEEVVLQASVSSYHLFRDVAEVTAFRGSLLSWYDQEKRDLPWRRRAEDEMDLDRRAYAVWVSEVMLQQTQVATVINYYTGWMQKWPTLQDLASASLEEVNQLWAGLGYYSRGRRLQEGARKVVEELGGHMPRTAETLQQLLPGVGRYTAGAIASIAFGQATGVVDGNVARVLCRVRAIGADPSSTLVSQQLWGLAQQLVDPARPGDFNQAAMELGATVCTPQRPLCSQCPVESLCRARQRVEQEQLLASGSLSGSPDVEECAPNTGQCHLCLPPSEPWDQTLGVVNFPRKWSRKPPREESSATCVLEQPGALGAQILLVQRPNSGLLAGLWEFPSVTWEPSEQLQRKALLQELQRWAGPLPATHLRHLGEVVHTFSHIKLTYQVYGLALEGQTPVTTVPPGARWLTQEEFHTAAVSTAMKKVFRVYQGQQPGTCMGSKRSQVSSPCSRKKPRMGQQVLDNFFRSHISTDAHSLNSAAQ [A334W] here?
Its value is -0.28.

For MRKPRAAVGSGHRKQAASQEGRQKHAKNNSQAKPSACDGLARQPEEVVLQASVSSYHLFRDVAEVTAFRGSLLSWYDQEKRDLPWRRRAEDEMDLDRRAYAVWVSEVMLQQTQVATVINYYTGWMQKWPTLQDLASASLEEVNQLWAGLGYYSRGRRLQEGARKVVEELGGHMPRTAETLQQLLPGVGRYTAGAIASIAFGQATGVVDGNVARVLCRVRAIGADPSSTLVSQQLWGLAQQLVDPARPGDFNQAAMELGATVCTPQRPLCSQCPVESLCRARQRVEQEQLLASGSLSGSPDVEECAPNTGQCHLCLPPSEPWDQTLGVVNFPRKSSRKPPREESSATCVLEQPGALGAQILLVQRPNSGLLAGLWEFPSVTWEPSEQLQRKALLQELQRWAGPLPATHLRHLGEVVHTFSHIKLTYQVYGLALEGQTPVTTVPPGARWLTQEEFHTAAVSTAMKKVFRVYQGQQPGTCMGSKRSQVSSPCSRKKPRMGQQVLDNFFRSHISTDAHSLNSAAQ [A334S], which “8OG:A repair function score” value is on record?
The value was 0.0289.

For MRKPRAAVGSGHRKQAASQEGRQKHAKNNSQAKPSACDGLARQPEEVVLQASVSSYHLFRDVAEVTAFRGSLLSWYDQEKRDLPWRRRAEDEMDLDRRAYAVWVSEVMLQQTQVATVINYYTGWMQKWPTLQDLASASLEEVNQLWAGLGYYSRGRRLQEGARKVVEELGGHMPRTAETLQQLLPGVGRYTAGAIASIAFGQATGVVDGNVARVLCRVRAIGADPSSTLVSQQLWGLAQQLVDPARPGDFNQAAMELGATVCTPQRPLCSQCPVESLCRARQRVEQEQLLASGSLSGSPDVEECAPNTGQCHLCLPPSEPWDQTLGVVNFPRKYSRKPPREESSATCVLEQPGALGAQILLVQRPNSGLLAGLWEFPSVTWEPSEQLQRKALLQELQRWAGPLPATHLRHLGEVVHTFSHIKLTYQVYGLALEGQTPVTTVPPGARWLTQEEFHTAAVSTAMKKVFRVYQGQQPGTCMGSKRSQVSSPCSRKKPRMGQQVLDNFFRSHISTDAHSLNSAAQ [A334Y], which “8OG:A repair function score” value is on record?
The value was 0.0534.

How did the “8OG:A repair function score” value turn out when MRKPRAAVGSGHRKQAASQEGRQKHAKNNSQAKPSACDGLARQPEEVVLQASVSSYHLFRDVAEVTAFRGSLLSWYDQEKRDLPWRRRAEDEMDLDRRAYAVWVSEVMLQQTQVATVINYYTGWMQKWPTLQDLASASLEEVNQLWAGLGYYSRGRRLQEGARKVVEELGGHMPRTAETLQQLLPGVGRYTAGAIASIAFGQATGVVDGNVARVLCRVRAIGADPSSTLVSQQLWGLAQQLVDPARPGDFNQAAMELGATVCTPQRPLCSQCPVESLCRARQRVEQEQLLASGSLSGSPDVEECAPNTGQCHLCLPPSEPWDQTLGVVNFPRKTSRKPPREESSATCVLEQPGALGAQILLVQRPNSGLLAGLWEFPSVTWEPSEQLQRKALLQELQRWAGPLPATHLRHLGEVVHTFSHIKLTYQVYGLALEGQTPVTTVPPGARWLTQEEFHTAAVSTAMKKVFRVYQGQQPGTCMGSKRSQVSSPCSRKKPRMGQQVLDNFFRSHISTDAHSLNSAAQ [A334T] was run?
The value was -0.0373.

With MRKPRAAVGSGHRKQAASQEGRQKHAKNNSQAKPSACDGLARQPEEVVLQASVSSYHLFRDVAEVTAFRGSLLSWYDQEKRDLPWRRRAEDEMDLDRRAYAVWVSEVMLQQTQVATVINYYTGWMQKWPTLQDLASASLEEVNQLWAGLGYYSRGRRLQEGARKVVEELGGHMPRTAETLQQLLPGVGRYTAGAIASIAFGQATGVVDGNVARVLCRVRAIGADPSSTLVSQQLWGLAQQLVDPARPGDFNQAAMELGATVCTPQRPLCSQCPVESLCRARQRVEQEQLLASGSLSGSPDVEECAPNTGQCHLCLPPSEPWDQTLGVVNFPRKVSRKPPREESSATCVLEQPGALGAQILLVQRPNSGLLAGLWEFPSVTWEPSEQLQRKALLQELQRWAGPLPATHLRHLGEVVHTFSHIKLTYQVYGLALEGQTPVTTVPPGARWLTQEEFHTAAVSTAMKKVFRVYQGQQPGTCMGSKRSQVSSPCSRKKPRMGQQVLDNFFRSHISTDAHSLNSAAQ [A334V] as the variant, how does the “8OG:A repair function score” value read?
The value was 0.00558.
